For 27 sequences, protein stability index results are on record in the supplement of paper PMC9732359.

± gives the uncertainty stated by the source.

The data set is described as follows: protein stability index of a GFP-peptide fusion (yeast GPS) (PSI 1-4); higher = more stable; sorted into four equal gates, so the index is relative within each strain. The essentials:
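Plasmids isolated from each sorting gate were PCR-amplified and Illumina-sequenced, and barcodes assigned the reads to strains. The gates, four of equal size, were set by GFP/Cherry fluorescence ratio on mid-log cultures in leucine-free medium. These cultures were yeast carrying a pooled library of tiled 17-residue yeast protein peptides fused downstream of GFP on a plasmid that also expresses Cherry. The protein stability index is the sum of every gate's read frequency times its gate number.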

On to YQMHIKTSKDIAVLRSK [FAS1], for which the protein stability index runs as follows: (doa10∆) 2.25 ± 0.051; (pdr5∆) 2.14 ± 0.062; (san1∆) 2.3 ± 0.062; (ubr1∆) 2.46 ± 0.072.
Taken in the same sequence, the figures for YQRPMQVQGQQQAQSFV [SSN3] were 2.42 ± 0.044, 2.71 ± 0.045, 2.5 ± 0.05 and 2.63 ± 0.035.
The like results for YRCFAQLELRQLNASIS [RRI2] were, in that order, 3.06 ± 0.2, 3.24 ± 0.2, 3.12 ± 0.16 and 3.39 ± 0.17.
The like results for YRLDIIESALKSKLDQD [RPN2] were, in that order, 1.66 ± 0.093, 1.96 ± 0.12, 1.99 ± 0.16 and 1.94 ± 0.19.
With YRNFMVNSYRLNPNEYF [SWI3], the protein stability index runs as follows: (doa10∆) 1.69 ± 0.12; (pdr5∆) 1.45 ± 0.058; (san1∆) 2.3 ± 0.1; (ubr1∆) 2.46 ± 0.075.
As for YRRALQSSESFDDSDIT [YML103C/NUP188], the protein stability index runs as follows: (doa10∆) 1.89 ± 0.056; (pdr5∆) 2.36 ± 0.059; (san1∆) 2.16 ± 0.058; (ubr1∆) 2.46 ± 0.047.
Taken in the same sequence, the figures for YRVTLESILQMNQGEGE [RPC34] were 2.94 ± 0.19, 3.16 ± 0.092, 3.46 ± 0.26 and 2.97 ± 0.12.
The like results for YSALNSTYLPKLISAFD [RRP42] were, in that order, 2.69 ± 0.068, 2.41 ± 0.06, 2.57 ± 0.06 and 2.39 ± 0.055.
The like results for YSKDAKEIYYTPDPSEL [FAS2] were, in that order, 2.44 ± 0.026, 2.81 ± 0.028, 2.6 ± 0.026 and 2.619 ± 0.024.
YSKIKHLGLDDPQDVFN [SIR2]: the protein stability index was 2.77 ± 0.18 (doa10∆), 3.22 ± 0.19 (pdr5∆), 3.3 ± 0.14 (san1∆) and 3.24 ± 0.096 (ubr1∆).
The like results for YSSYIYKVLKQTHPDTG [HTB1] were, in that order, 2.58 ± 0.065, 2.05 ± 0.051, 1.7 ± 0.074 and 1.81 ± 0.045.
Taken in the same sequence, the figures for YTANTSAQSIASAKSVR [YAR002W/NUP60] were 2.64 ± 0.088, 2.93 ± 0.11, 2.65 ± 0.09 and 2.71 ± 0.12.
Taken in the same sequence, the figures for YTKETYQSRGIDAMKAV [RPN6] were 2.59 ± 0.069, 2.86 ± 0.072, 2.83 ± 0.064 and 2.39 ± 0.047.
On to YTLTEEGVEYLREYLNL [RPS10A], for which the protein stability index runs as follows: (doa10∆) 3.28 ± 0.11; (pdr5∆) 3.37 ± 0.095; (san1∆) 3.51 ± 0.16; (ubr1∆) 3.39 ± 0.12.
The like results for YTREFVEAIRRSNQYQR [NUT2] were, in that order, 2.26 ± 0.07, 2.18 ± 0.05, 2.88 ± 0.12 and 2.21 ± 0.082.
Taken in the same sequence, the figures for YVESDEDDTQIVTGNLV [IRR1] were 3.47 ± 0.15, 3.47 ± 0.12, 3.08 ± 0.08 and 3.26 ± 0.076.
As to YVFNARPDGVHVINVGK [RPS0A], the protein stability index reads like this: (pdr5∆) 2.78 ± 0.24; (ubr1∆) 2.55 ± 0.11.
The sequence YVIHGIELLSDLINILE [LIN1] gave a protein stability index (pdr5∆) of 2.74 ± 0.25 and a protein stability index (ubr1∆) of 2.43 ± 0.14.
With YVISLSYTDAQDKSKKI [YMR129W/POM152], the protein stability index (doa10∆) was 2.67 ± 0.12, the protein stability index (pdr5∆) amounted to 2.95 ± 0.082, the protein stability index (san1∆) amounted to 2.9 ± 0.072 and the protein stability index (ubr1∆) turned out to be 2.68 ± 0.06.
Taken in the same sequence, the figures for YVKEKLEAVNSMIEKGG [RPN7] were 2.93 ± 0.14, 2.98 ± 0.1, 2.77 ± 0.08 and 2.83 ± 0.06.
The like results for YVNDVAIYNNPTRIRTK [RRI2] were, in that order, 1.81 ± 0.052, 2.54 ± 0.032, 2.19 ± 0.058 and 2.4 ± 0.04.
The like results for YVYRASKEVRGSKIRVM [RPL33A] were, in that order, 2.75 ± 0.063, 2.81 ± 0.086, 2.5 ± 0.064 and 2.88 ± 0.049.
The sequence YWQYKAGIPIGLKRSQL [SWP82] showed a protein stability index (doa10∆) of 1.7 ± 0.13, a protein stability index (pdr5∆) of 1.57 ± 0.081, a protein stability index (san1∆) of 1.69 ± 0.15 and a protein stability index (ubr1∆) of 1.49 ± 0.049.
YYAKKRAFTKKVSSASA [RPL16B]: the protein stability index runs as follows: (doa10∆) 1.82 ± 0.075; (pdr5∆) 1.71 ± 0.048; (san1∆) 1.95 ± 0.068; (ubr1∆) 1.41 ± 0.055.
On to YYDRKEELKNMFLYILK [RRI2], for which the protein stability index stood at 2.16 ± 0.22 (doa10∆), 1.95 ± 0.13 (pdr5∆), 1.27 ± 0.11 (san1∆) and 1.52 ± 0.1 (ubr1∆).
The like results for YYNEEGIHILLYSGLII [RPC82] were, in that order, 2.01 ± 0.1, 2.04 ± 0.094, 2.14 ± 0.18 and 2.28 ± 0.037.
Sequence YYNPQAGTKITICIELK [RGR1] yielded a protein stability index (doa10∆) of 2.16 ± 0.13, a protein stability index (pdr5∆) of 2.24 ± 0.23, a protein stability index (san1∆) of 2.1 ± 0.13 and a protein stability index (ubr1∆) of 2.48 ± 0.1.
